Laboratory results taken from patent US20080118529.

T1: amyloid fibrin peptide FP13 K157G, P02671
T1 chain: KVQHIQLLQGNVR

T2: amyloid fragment of transthyretin
T2 chain: YTIAALLSPYS

T3: laminin α1-chain (2097-2108) amyloid core peptide
T3 chain: AASIKVAVSADR

T4: mouse non-amyloidogenic IAPP (20-29) core
T4 chain: SNNLGPVLPP

T5: non-amyloid fragment FP10 of human fibrin α-chain (148-157)
T5 chain: KRLEVDIDIK

T6: Amyloid-like misfolded OVA (DOVA), obtained by cyclic thermal misfolding, P01012
T6 chain: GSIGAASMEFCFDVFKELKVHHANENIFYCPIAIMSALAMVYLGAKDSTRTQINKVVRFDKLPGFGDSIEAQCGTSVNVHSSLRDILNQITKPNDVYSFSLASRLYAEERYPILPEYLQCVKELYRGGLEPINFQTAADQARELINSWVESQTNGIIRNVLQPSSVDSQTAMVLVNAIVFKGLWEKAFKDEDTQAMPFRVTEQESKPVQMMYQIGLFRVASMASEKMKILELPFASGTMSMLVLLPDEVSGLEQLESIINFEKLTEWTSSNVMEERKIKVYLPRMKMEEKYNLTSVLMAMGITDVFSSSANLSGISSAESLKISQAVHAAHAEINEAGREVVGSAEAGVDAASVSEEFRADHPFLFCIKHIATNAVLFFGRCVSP

T7: Ovalbumin (chicken egg albumin, OVA, Sigma A5503), carefully dissolved, P01012
T7 chain: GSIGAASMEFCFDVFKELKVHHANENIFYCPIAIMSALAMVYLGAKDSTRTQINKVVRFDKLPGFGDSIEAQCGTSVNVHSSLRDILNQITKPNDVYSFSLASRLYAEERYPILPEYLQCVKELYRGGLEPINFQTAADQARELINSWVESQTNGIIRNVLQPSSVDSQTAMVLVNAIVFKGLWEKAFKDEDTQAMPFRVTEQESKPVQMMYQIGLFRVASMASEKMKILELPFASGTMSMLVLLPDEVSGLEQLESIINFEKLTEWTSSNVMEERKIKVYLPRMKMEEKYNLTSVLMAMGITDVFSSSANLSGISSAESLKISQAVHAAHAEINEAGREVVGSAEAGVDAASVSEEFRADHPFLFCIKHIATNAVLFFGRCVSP

T8: human β2-Glycoprotein I pre-incubated with cardiolipin vesicles (CL-β2gpi), P02749
T8 chain: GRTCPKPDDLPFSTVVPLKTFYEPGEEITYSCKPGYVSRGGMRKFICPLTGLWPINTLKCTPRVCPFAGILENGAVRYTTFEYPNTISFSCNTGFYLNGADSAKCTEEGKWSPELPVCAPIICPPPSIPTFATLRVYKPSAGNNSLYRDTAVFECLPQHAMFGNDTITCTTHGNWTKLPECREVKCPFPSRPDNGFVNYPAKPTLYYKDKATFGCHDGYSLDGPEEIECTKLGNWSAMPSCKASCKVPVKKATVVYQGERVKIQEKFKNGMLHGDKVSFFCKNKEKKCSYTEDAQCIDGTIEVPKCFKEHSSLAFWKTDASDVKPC

T9: recombinant human β2-glycoprotein I (made in insect cells), P02749
T9 chain: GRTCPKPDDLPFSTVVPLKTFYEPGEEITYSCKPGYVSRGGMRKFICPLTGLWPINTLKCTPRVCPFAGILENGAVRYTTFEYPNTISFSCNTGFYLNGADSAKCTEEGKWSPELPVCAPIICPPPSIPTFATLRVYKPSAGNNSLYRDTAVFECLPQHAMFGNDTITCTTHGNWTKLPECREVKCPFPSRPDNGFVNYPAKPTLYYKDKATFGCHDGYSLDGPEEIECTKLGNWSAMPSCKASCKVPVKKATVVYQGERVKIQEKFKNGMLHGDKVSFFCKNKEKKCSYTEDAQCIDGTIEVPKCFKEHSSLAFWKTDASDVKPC

T10: β2-glycoprotein I purified from fresh human plasma, P02749
T10 chain: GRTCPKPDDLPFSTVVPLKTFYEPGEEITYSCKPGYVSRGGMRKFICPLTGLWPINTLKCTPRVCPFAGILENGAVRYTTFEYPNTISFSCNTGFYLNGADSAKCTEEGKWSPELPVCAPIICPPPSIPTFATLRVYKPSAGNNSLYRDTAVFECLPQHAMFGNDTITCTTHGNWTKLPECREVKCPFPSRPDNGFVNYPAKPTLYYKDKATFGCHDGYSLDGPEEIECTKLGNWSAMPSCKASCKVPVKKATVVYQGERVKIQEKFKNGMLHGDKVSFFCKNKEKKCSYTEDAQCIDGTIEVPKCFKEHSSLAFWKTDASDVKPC


Tests used:
[1] = target: Glycated haemoglobin (Hb-AGE)
[2] = target: albumin (ICN, 160069), P02769
[3] = target: T1, amyloid fibrin peptide FP13 K157G, …
[4] = target: T2, amyloid fragment of transthyretin
[5] = target: T3, laminin α1-chain (2097-2108) amyloid …
[6] = target: T4, mouse non-amyloidogenic IAPP (20-29) …
[7] = target: T5, non-amyloid fragment FP10 of human …
[8] = target: recombinant human collagen XVIII fragment endostatin (Entremed, Inc), P39060
[9] = target: T6, Amyloid-like misfolded OVA (DOVA), …
[10] = target: Native murine serum albumin (nMSA, #126674, Calbiochem), P07724
[11] = target: T7, Ovalbumin (chicken egg albumin, OVA, …)
[12] = target: heat/acid-denatured human glucagon (Glucagen, Novo Nordisk), P01275
[13] = target: T8, human β2-Glycoprotein I pre-incubated …
[14] = target: native human glucagon (freshly dissolved), P01275
[15] = target: T9, recombinant human β2-glycoprotein I …
[16] = target: T10, β2-glycoprotein I purified from fresh …

Native murine serum albumin (nMSA, #126674, Calbiochem), P07724, sequence (P07724 25-608): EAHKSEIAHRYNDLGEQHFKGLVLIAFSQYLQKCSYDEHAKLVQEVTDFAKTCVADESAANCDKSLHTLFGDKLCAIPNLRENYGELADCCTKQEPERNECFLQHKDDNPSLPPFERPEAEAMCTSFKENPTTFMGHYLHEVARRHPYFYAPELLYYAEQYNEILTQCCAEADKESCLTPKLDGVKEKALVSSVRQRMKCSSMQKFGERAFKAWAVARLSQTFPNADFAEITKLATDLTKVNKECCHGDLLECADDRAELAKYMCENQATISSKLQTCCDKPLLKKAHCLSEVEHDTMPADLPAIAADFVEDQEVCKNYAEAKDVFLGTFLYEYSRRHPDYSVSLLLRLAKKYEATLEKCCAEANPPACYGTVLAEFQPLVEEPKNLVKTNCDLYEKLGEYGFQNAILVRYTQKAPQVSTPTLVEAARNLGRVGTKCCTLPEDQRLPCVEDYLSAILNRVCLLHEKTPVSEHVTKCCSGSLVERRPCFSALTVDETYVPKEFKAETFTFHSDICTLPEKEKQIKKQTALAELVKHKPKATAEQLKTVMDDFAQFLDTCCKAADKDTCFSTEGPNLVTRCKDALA
native human glucagon (freshly dissolved), P01275, sequence (P01275 53-81): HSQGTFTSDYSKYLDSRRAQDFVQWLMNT
albumin (ICN, 160069), P02769, sequence (P02769 25-607): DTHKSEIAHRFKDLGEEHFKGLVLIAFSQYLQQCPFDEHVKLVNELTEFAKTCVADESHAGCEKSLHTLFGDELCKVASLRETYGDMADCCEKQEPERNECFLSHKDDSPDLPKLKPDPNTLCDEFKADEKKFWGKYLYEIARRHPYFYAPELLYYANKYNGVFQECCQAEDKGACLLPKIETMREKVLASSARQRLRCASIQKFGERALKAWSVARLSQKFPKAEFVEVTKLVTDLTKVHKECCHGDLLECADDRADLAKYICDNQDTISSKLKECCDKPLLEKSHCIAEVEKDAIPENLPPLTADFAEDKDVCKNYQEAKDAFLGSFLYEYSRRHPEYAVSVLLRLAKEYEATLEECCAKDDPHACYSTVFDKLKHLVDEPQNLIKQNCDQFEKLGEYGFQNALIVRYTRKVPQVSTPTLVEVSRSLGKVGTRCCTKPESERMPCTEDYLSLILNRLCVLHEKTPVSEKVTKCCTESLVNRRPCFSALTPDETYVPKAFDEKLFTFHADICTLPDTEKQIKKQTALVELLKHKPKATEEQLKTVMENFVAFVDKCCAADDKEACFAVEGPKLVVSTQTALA
recombinant human collagen XVIII fragment endostatin (Entremed, Inc), P39060, sequence (P39060 whole entry, looked up, the tested form may be a part): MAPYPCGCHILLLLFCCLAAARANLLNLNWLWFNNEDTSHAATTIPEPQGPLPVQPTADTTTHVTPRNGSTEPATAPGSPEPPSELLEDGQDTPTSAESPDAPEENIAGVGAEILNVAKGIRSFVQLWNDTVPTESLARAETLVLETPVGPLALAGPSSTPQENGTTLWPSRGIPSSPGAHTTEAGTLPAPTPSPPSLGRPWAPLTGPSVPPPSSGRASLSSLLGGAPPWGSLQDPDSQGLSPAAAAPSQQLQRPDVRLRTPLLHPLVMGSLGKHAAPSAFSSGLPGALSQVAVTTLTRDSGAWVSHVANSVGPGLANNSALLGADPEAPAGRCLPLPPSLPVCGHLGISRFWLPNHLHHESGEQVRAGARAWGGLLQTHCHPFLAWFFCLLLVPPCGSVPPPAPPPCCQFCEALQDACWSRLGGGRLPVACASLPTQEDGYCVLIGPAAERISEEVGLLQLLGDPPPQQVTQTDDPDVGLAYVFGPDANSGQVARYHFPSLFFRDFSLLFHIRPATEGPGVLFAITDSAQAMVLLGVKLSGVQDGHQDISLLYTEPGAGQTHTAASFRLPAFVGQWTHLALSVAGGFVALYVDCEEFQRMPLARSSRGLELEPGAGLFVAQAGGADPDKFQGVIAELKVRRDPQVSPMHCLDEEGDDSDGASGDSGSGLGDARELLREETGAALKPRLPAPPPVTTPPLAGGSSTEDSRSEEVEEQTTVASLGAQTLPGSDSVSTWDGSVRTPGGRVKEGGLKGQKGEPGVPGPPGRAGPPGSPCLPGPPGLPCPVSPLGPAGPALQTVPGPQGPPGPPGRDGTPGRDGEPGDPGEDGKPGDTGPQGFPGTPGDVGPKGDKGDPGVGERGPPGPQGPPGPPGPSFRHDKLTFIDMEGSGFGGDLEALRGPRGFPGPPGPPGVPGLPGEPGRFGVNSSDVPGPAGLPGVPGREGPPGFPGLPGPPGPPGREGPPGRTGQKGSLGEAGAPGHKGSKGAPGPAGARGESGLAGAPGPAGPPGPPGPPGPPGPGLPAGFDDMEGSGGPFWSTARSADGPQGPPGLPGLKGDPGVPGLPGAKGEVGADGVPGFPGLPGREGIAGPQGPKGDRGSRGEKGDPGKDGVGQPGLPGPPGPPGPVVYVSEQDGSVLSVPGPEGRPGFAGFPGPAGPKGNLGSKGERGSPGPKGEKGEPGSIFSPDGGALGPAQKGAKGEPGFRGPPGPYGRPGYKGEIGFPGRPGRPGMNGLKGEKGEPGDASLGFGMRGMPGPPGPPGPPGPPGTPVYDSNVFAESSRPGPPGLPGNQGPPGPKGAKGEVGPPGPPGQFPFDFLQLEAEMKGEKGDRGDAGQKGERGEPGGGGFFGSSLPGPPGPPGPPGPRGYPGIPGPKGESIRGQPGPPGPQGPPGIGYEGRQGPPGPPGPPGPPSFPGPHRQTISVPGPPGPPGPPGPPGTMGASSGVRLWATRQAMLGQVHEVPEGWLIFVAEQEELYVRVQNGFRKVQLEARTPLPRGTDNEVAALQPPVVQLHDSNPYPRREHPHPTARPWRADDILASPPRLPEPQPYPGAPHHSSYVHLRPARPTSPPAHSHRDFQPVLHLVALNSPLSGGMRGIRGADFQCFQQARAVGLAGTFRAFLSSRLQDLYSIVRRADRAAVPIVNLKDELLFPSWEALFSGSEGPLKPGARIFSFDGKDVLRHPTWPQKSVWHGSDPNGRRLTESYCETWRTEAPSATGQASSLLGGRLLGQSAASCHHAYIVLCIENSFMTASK

Row | Protein | auto-activation of purified factor XII, substrate S-2222 [1] | factor XII and subsequent prekallikrein activity (Chromozym-PK) [2] | auto-activation of purified factor XII, substrate S-2222 [3] | activation of factor XII, detected by the conversion of Chromozym-PK [4] | activation of factor XII, detected by the conversion of Chromozym-PK [5] | activation of factor XII, detected by the conversion of Chromozym-PK [6] | activation of factor XII, detected by the conversion of Chromozym-PK [7] | factor XII and subsequent prekallikrein activity (Chromozym-PK) [8] | tPA/plasminogen activation assay [9] | Plg-activation assay [10] | tPA/plasminogen activation assay [11] | Plg-activation assay [12] | chromogenic tPA/plasminogen activation assay with a plasmin substrate [13] | Plg-activation assay [14] | tPA-mediated conversion of Plg to plasmin (substrate S-2251) [15] | tPA-mediated conversion of Plg to plasmin (substrate S-2251) [16]
1 | human factor XII from plasma (Calbiochem, #233490) (protein) IPPWEAPKEHKYKAEEHTVVLTVTGEPCHFPFQYHRQLYHKCTHKGRPGPQPWCATTPNFDQDQRWGYCLEPKKVKDHCSKHSPCQKGGTCVNMPSGPHCLCPQHLTGNHCQKEKCFEPQLLRFFHKNEIWYRTEQAAVARCQCKGPDAHCQRLASQACRTNPCLHGGRCLEVEGHRLCHCPVGYTGAFCDVDTKASCYDGRGLSYRGLARTTLSGAPCQPWASEATYRNVTAEQARNWGLGGHAFCRNPDNDIRPWCFVLNRDRLSWEYCDLAQCQTPTQAAPPTPVSPRLHVPLMPAQPAPPKPQPTTRTPPQSQTPGALPAKREQPPSLTRNGPLSCGQRLRKSLSSMTRVVGGLVALRGAHPYIAALYWGHSFCAGSLIAPCWVLTAAHCLQDRPAPEDLTVVLGQERRNHSCEPCQTLAVRSYRLHEAFSPVSYQHDLALLRLQEDADGSCALLSPYVQPVCLPSGAARPSETTLCQVAGWGHQFEGAEEYASFLQEAQVPFLSLERCSAPDVHGSSILPGMLCAGFLEGGTDACQGDSGGPLVCEDQAAERRLTLQGIISWGSGCGDRNKPGVYTDVAYYLAWIREHTVS | All three amyloid-like aggregates are able to induce factor XII auto-activation. FP13 K157G and Hb-AGE have a potency to induce auto-activation that is similar to the established surface activator DXS500k | Neither albumin or endostatin alone, nor kaolin or DXS500k alone are efficient activators of factor XII, whereas combinations of adjuvant and protein cofactor results in factor XII and subsequent prekallikrein activity | All three amyloid-like aggregates are able to induce factor XII auto-activation. FP13 K157G and Hb-AGE have a potency to induce auto-activation that is similar to the established surface activator DXS500k | cross-β structure conformation rich peptides laminin (LAM12) and transthyretin (TTR11) stimulate factor XII activation, to a similar extent as kaolin | cross-β structure conformation rich peptides laminin (LAM12) and transthyretin (TTR11) stimulate factor XII activation, to a similar extent as kaolin | non-amyloid controls fibrin fragment FP10 and non-amyloid murine islet amyloid polypeptide mIAPP do not activate factor XII | non-amyloid controls fibrin fragment FP10 and non-amyloid murine islet amyloid polypeptide mIAPP do not activate factor XII | Neither albumin or endostatin alone, nor kaolin or DXS500k alone are efficient activators of factor XII, whereas combinations of adjuvant and protein cofactor results in factor XII and subsequent prekallikrein activity | – | – | – | – | – | – | – | –
2 | Tissue-type plasminogen activator (tPA, Actilyse, Boehringer-Ingelheim) (protein) SYQVICRDEKTQMIYQQHQSWLRPVLRSNRVEYCWCNSGRAQCHSVPVKSCSEPRCFNGGTCQQALYFSDFVCQCPEGFAGKCCEIDTRATCYEDQGISYRGTWSTAESGAECTNWNSSALAQKPYSGRRPDAIRLGLGNHNYCRNPDRDSKPWCYVFKAGKYSSEFCSTPACSEGNSDCYFGNGSAYRGTHSLTESGASCLPWNSMILIGKVYTAQNPSAQALGLGKHNYCRNPDGDAKPWCHVLKNRRLTWEYCDVPSCSTCGLRQYSQPQFRIKGGLFADIASHPWQAAIFAKHRRSPGERFLCGGILISSCWILSAAHCFQERFPPHHLTVILGRTYRVVPGEEEQKFEVEKYIVHKEFDDDTYDNDIALLQLKSDSSRCAQESSVVRTVCLPPADLQLPDWTECELSGYGKHEALSPFYSERLKEAHVRLYPSSRCTSQHLLNRTVTDNMLCAGDTRSGGPQANLHDACQGDSGGPLVCLNDGRMTLVGIISWGLGCGQKDVPGVYTKVTNYLDWIRDNMRP | – | – | – | – | – | – | – | – | After cyclic thermal misfolding, however, signals representative for crossbeta structure are far more pronounced with denatured OVA | also native albumin enhanced ThT fluorescence to some extent, but this was not reflected by stimulation of tPA activation | OVA displays characteristics that are a hallmark for the presence of at least a fraction of the molecules with crossbeta structure, as shown by ... the enhanced activation of tPA and plasminogen | In this way, a potent activator of tPA was obtained | Exposure of human β2gpi to cardiolipin renders the mixture with tPA/plasminogen activating properties | at high glucagon concentration, also native glucagon has some tPA activating potential | Recombinant β2GPI, but not β2GPI purified from fresh plasma stimulate tPA-mediated conversion of Plg to plasmin | Recombinant β2GPI, but not β2GPI purified from fresh plasma stimulate tPA-mediated conversion of Plg to plasmin
